Blank lines part the entries; values can stand above or below the binder they belong to.
Experiments:
[1] = target: Vps74 (endogenous, wild-type yeast cells) (Saccharomyces cerevisiae (strain ATCC …, UniProt Q06385)); experiment: co-IP
Twin-Strep-Vps74 = Twin-Strep-Vps74 (yeast, UniProt Q06385); experiment: pull-down
[2] = target: Vps74 (bacterially expressed, as used in the in vitro mixing assays) (yeast, UniProt Q06385); experiment: pull-down
Vps74 (bacterially expressed, as used in the in vitro mixing assays), sequence (Q06385 whole entry): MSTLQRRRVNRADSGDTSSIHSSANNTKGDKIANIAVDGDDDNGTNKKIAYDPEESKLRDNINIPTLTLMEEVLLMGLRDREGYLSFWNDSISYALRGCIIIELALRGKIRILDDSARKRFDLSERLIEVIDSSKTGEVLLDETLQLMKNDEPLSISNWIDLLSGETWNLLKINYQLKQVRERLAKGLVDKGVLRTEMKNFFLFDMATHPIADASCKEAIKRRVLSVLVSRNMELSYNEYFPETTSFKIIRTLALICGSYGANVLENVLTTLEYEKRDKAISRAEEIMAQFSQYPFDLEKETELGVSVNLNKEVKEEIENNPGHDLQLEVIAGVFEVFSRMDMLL

Twin-Strep-Vps74, sequence (Q06385 whole entry): as above
Vps74 (endogenous, wild-type yeast cells) (Saccharomyces cerevisiae, sequence (Q06385 whole entry): as above

binding result [1]: binds
B1: Vps74InNb#4-HA (expressed in the cytoplasm of yeast cells) (VHH)
VHH: QVQLQESGGGLVQAGGSLRLSCAASGSISTIVGMGWYRQAPGKERELVAAITGGSSTNYADSVKGRFTISRDNAKNTVYLQMNSLKPEDTAVYYCAAVSYEYRSSPYPETYWGQGTQVTVSS

binding result (Twin-Strep-Vps74): binds
binding result [2]: binds
B2: Vps74InNb#4 (purified from the periplasm of E. coli) (VHH)
VHH: B1 VHH

Source: article doi:10.1101/2025.02.10.637573 (bioRxiv, 2025)
